Target: Orai1-GFP (UniProt Q96D31)
Assay: FRET or BRET

UniProt Q96D31, sequence (Q96D31 whole entry): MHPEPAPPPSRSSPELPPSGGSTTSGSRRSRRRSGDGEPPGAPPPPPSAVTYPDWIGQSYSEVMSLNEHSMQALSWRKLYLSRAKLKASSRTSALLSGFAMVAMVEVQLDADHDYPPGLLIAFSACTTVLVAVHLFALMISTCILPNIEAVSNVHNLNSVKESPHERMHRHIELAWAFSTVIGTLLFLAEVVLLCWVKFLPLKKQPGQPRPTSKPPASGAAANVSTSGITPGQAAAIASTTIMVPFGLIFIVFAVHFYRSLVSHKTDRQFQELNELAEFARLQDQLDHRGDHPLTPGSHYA

FRET efficiency (E-FRET): 0.26
Substance: STIM1A-mCherry (natural protein)

— paper PMC8892257
